In one test the target is CD20 (human) (UniProt P11836). Briefly: cell-based or functional assay.
A further test concerns the target CD74 (human) (UniProt P04233). Put plainly: cell-based or functional assay.

Where only a bound is given, the exact number is not on record here.

Chain of CD20 (human) (P11836 whole entry): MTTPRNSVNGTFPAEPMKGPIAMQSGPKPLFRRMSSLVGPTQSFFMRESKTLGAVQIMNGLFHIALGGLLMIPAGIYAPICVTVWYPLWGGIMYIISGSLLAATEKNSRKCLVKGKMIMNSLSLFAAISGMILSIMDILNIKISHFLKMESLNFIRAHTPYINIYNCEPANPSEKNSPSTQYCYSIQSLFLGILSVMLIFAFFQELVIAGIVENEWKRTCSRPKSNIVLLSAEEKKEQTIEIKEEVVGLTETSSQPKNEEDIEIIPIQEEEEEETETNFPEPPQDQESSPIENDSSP
Chain of CD74 (human) (P04233 whole entry): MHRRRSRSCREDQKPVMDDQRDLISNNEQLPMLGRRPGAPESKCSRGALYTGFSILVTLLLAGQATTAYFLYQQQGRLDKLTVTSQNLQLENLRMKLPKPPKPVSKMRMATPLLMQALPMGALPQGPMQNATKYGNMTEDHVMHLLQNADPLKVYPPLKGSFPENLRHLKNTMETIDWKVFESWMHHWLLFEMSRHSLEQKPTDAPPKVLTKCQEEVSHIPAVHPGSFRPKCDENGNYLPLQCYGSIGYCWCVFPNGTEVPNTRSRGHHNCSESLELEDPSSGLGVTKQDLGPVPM

In the test with CD20 (human), 20-Rap registered an EC50, in vitro cytotoxicity, Daudi and Ramos of 0.1 nM; an EC50, in vitro cytotoxicity, Jeko-1 of 0.02 nM.
In the test with CD74 (human), 74-(74)-(74) (antibody) displayed an EC50 (nM), MTS assay, JeKo-1 above 100 nM.
In the test with CD20 (human), Hex-hA20 (antibody) yielded an EC50 (nM), MTS assay, Daudi of 5.8 nM; an EC50 (nM), MTS assay, Granta-519 of 0.2 nM; an EC50 (nM), MTS assay, Mino of 3.4 nM; an EC50 (nM), MTS assay, Raji of 8 nM.

(Values after patent publication US20160243226A1.)
